Reference: patent US20130245385A1

Biological target: sHLA-A2 (soluble class I HLA-A2) (human)
Assay: 65 ml class I HLA SHARC, 24.4 mg W6/32 at 97 µg/ml in PBS

“W6/32 pan class I HLA monoclonal antibody” gave an antibody recovered in the elution of 8 mg and an antibody that passed through the column of 11.7 mg.
